Measurements: US6933142 (University of California, dated 2005)
Each block holds one molecule with its values, some of them ahead of it.

Key:
[1] = biological target: CD34 on CHO/FTVII/C2GnT cells, no sulfotransferase cDNA; assay: flow cytometry; CHO/FTVII/C2GnT cells with CD34 cDNA alone
[2] = biological target: CD34 on CHO/FTVII/C2GnT cells cotransfected with KSGal6ST cDNA; assay: flow cytometry; CHO/FTVII/C2GnT cells with CD34 (2 µg) and 1.0 µg KSGal6ST cDNA
[3] = biological target: CD34 on CHO/FTVII/C2GnT cells cotransfected with KSGal6ST cDNA; assay: flow cytometry; CHO/FTVII/C2GnT cells with CD34 (2 µg) and 1.5 µg KSGal6ST cDNA
[4] = biological target: CD34 on CHO/FTVII/C2GnT cells cotransfected with HEC-GlcNAc6ST cDNA; assay: flow cytometry; CHO/FTVII/C2GnT cells with CD34 (2 µg) and 1 µg HEC-GlcNAc6ST cDNA
Chain of CD34 on CHO/FTVII/C2GnT cells cotransfected with HEC-GlcNAc6ST cDNA (P28906 32-385): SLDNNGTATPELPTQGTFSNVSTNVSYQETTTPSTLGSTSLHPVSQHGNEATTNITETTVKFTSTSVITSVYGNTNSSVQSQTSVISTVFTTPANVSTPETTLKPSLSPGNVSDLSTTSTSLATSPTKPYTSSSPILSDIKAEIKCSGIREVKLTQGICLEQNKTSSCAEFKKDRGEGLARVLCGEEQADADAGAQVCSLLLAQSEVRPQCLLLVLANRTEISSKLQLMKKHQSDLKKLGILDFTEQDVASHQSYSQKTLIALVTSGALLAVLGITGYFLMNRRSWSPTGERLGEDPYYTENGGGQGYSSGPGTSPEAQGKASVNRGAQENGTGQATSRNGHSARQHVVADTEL

[5] = biological target: CD34 on CHO/FTVII/C2GnT cells cotransfected with HEC-GlcNAc6ST cDNA; assay: flow cytometry; CHO/FTVII/C2GnT cells with CD34 (2 µg) and 1.5 µg HEC-GlcNAc6ST cDNA
[6] = biological target: CD34 on CHO/FTVII/C2GnT cells cotransfected with KSGal6ST and HEC-GlcNAc6ST cDNAs; assay: flow cytometry; CHO/FTVII/C2GnT cells with CD34 (2 µg), 1 µg KSGal6ST and 0.5 µg HEC-GlcNAc6ST cDNA
Chain of CD34 on CHO/FTVII/C2GnT cells cotransfected with KSGal6ST and HEC-GlcNAc6ST cDNAs (P28906 32-385): as above

[7] = biological target: CD34 on CHO/FTVII/C2GnT cells cotransfected with KSGal6ST and HEC-GlcNAc6ST cDNAs; assay: flow cytometry; CHO/FTVII/C2GnT cells with CD34 (2 µg), 0.5 µg KSGal6ST and 0.5 µg HEC-GlcNAc6ST cDNA
[8] = biological target: CD34 on CHO/FTVII/C2GnT cells cotransfected with KSGal6ST and HEC-GlcNAc6ST cDNAs; assay: flow cytometry; CHO/FTVII/C2GnT cells with CD34 (2 µg), 0.5 µg KSGal6ST and 1.0 µg HEC-GlcNAc6ST cDNA
[9] = biological target: L-selectin on Jurkat cells (UniProt P14151); assay: cell-based or functional assay
rGlyCAM-1/IgG = biological target: T1, rGlyCAM-1/IgG (human, UniProt Q02596 20-151 (mouse entry), limits assumed, not fucosylated by FucT-VII, no sulfotransferase co-transfected); assay: cell-based or functional assay
T1 sequence (looked up): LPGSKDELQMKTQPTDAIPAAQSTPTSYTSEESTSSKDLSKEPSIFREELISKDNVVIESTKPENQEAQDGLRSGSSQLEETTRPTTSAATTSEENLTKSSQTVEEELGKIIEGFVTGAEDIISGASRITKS

[10] = biological target: T2, rGlyCAM-1/IgG FT KSGal6ST (human, UniProt Q02596 20-151 (mouse entry), limits assumed, glycans made in COS cells co-transfected with C2GnT, FucT-VII and KSGal6ST (fucosylated, Gal-6-sulfate)); assay: cell-based or functional assay
T2 sequence (looked up): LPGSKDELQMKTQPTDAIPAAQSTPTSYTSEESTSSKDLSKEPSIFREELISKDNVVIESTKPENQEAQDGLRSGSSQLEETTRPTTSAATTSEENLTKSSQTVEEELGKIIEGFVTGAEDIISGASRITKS

[11] = biological target: T3, rGlyCAM-1/IgG FT huGlcNAc6ST (human, UniProt Q02596 20-151 (mouse entry), limits assumed, glycans made in COS cells co-transfected with C2GnT, FucT-VII and huGlcNAc6ST (fucosylated, GlcNAc-6-sulfate)); assay: cell-based or functional assay
T3 sequence (looked up): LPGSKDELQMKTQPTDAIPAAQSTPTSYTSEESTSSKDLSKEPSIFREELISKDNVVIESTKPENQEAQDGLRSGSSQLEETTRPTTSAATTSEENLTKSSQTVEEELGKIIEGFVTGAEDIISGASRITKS

[12] = biological target: T4, rGlyCAM-1/IgG FT HEC-GlcNAc6ST (human, UniProt Q02596 20-151 (mouse entry), limits assumed, glycans made in COS cells co-transfected with C2GnT, FucT-VII and HEC-GlcNAc6ST (fucosylated, GlcNAc-6-sulfate)); assay: cell-based or functional assay
T4 sequence (looked up): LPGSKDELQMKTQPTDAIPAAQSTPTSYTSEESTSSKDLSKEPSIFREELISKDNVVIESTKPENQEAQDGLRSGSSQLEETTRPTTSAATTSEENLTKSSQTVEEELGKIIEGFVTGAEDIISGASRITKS

Chain of CD34 on CHO/FTVII/C2GnT cells cotransfected with KSGal6ST cDNA (P28906 32-385): as the sequence (P28906 32-385) above
Chain of CD34 on CHO/FTVII/C2GnT cells, no sulfotransferase cDNA (P28906 32-385): as the sequence (P28906 32-385) above

Molecule: L-selectin/IgM chimera (from UniProt P18337 39-332; P01871 106-453) (Fc fusion)
MFI (background signal) [1]: 139 MFI | MFI (background subtracted) [2]: 364 MFI | MFI (background subtracted) [3]: 391 MFI | MFI (background subtracted) [4]: 114 MFI | MFI (background subtracted) [5]: 163 MFI | MFI (background subtracted) [6]: 917 MFI | MFI (background subtracted) [7]: 935 MFI | MFI (background subtracted) [8]: 830 MFI

Molecule: DREG56 (antibody)
Rolling of Jurkat cells on rGlyCAM-1/IgG FT after treatment with 5 µg/ml DREG56 (rolling cells) [9]: 0

More lines, now with the values ahead:

incorporation of ^35S-SO4 into the GlyCAM-1 chimera in co-transfected COS cells (rGlyCAM-1/IgG): > 10 fold
B1: human HEC-GlcNAc6ST (enzyme)
chain: MLLPKKMKLLLFLVSQMAILALFFHMYSHNISSLSMKAQPERMHVLVLSSWRSGSSFVGQLFGQHPDVFYLMEPAWHVWMTFKQSTAWMLHMAVRDLIRAVFLCDMSVFDAYMEPGPRRQSSLFQWENSRALCSAPACDIIPQDEIIPRAHCRLLCSQQPFEVVEKACRSYSHVVLKEVRFFNLQSLYPLLKDPSLNLHIVHLVRDPRAVFRSRERTKGDLMIDSRIVMGQHEQKLKKEDQPYYVMQVICQSQLEIYKTIQSLPKALQERYLLVRYEDLARAPVAQTSRMYEFVGLEFLPHLQTWVHNITRGKGMGDHAFHTNARDALNVSQAWRWSLPYEKVSRLQKACGDAMNLLGYRHVRSEQEQRNLLLDLLSTWTVPEQIH

fraction of tethered cells relative to non-sulfated GlyCAM-1/IgG (FT) [10]: 6 fold | fraction of tethered cells relative to non-sulfated GlyCAM-1/IgG (FT) [11]: 2 fold | fraction of tethered cells relative to non-sulfated GlyCAM-1/IgG (FT) [12]: 2 fold
B2: L-selectin on Jurkat cells (receptor, UniProt P14151 39-372, looked up)
chain: WTYHYSEKPMNWQRARRFCRDNYTDLVAIQNKAEIEYLEKTLPFSRSYYWIGIRKIGGIWTWVGTNKSLTEEAENWGDGEPNNKKNKEDCVEIYIKRNKDAGKWNDDACHKLKAALCYTASCQPWSCSGHGECVEIINNYTCNCDVGYYGPQCQFVIQCEPLEAPELGTMDCTHPLGNFSFSSQCAFSCSEGTNLTGIEETTCGPFGNWSSPEPTCQVIQCEPLSAPDLGIMNCSHPLASFSFTSACTFICSEGTELIGKKKTICESSGIWSNPSPICQKLDKSFSMIKEGDYNPLFIPVAVMVTAFSGLAFIIWLARRLKKGKKSKRSMNDPY
